Reference: US20210079067A1 (US Dept. of Health and Human Services, published 2021)

B1: mAb100 (antibody, V domains shown)
VH: QVQLQESGPGLVKPSDTLSLTCTVSGGSLSSFYWSWIRQPPGKGLEWIGYIYYSGSPNYSPSLESRVTMSVDTTRNQISLKLDSVTAADTAVYYCVRASRSYYWGSYRPTAFDSWGQGTLVTVSS
VL: SYELTQPLSVSVSPGQTAIFTCSGDNLGDKYVCWFQQRPGQSPMLLIYQDNKRPSGIPERFSGSNSGNTATLTISGTQSTDEADYYCQTWDSTVVFGGGTKLTVL
B2: S1-4-A09 Fab (Fab, V domains shown)
VH: QVQLQESGPGLVKPSETLSLTCVVSGGILSSFYWNWIRQPPGKGLEWIGNIYYSGSPNYNASFQSRVAISVDTSKNQISLNLKSVTAADTAMYYCVRASRAYLWGSYRPTALDLWGQGSLVTVSS
VL: SYELTQPPSVSVSPGQTATITCSGDKLGDKYTSWFQQRPGQSPLLVIYQDNKRPSGLPARFSGSNSGNTATLTISGTQAMDEADYLCQVWDSGAVFGGGTKLTVL

Experiments:
[1] = target: T1, mucin-domain-deleted Zaire ebolavirus GP (Zaire ebolavirus, UniProt Q05320 33-650)
[2] = target: T1, mucin-domain-deleted Zaire ebolavirus GP; experiment: biolayer interferometry, mAb, pH 7.4, 1:2 bivalent model
[3] = target: T1, mucin-domain-deleted Zaire ebolavirus GP; experiment: biolayer interferometry, mAb, pH 7.4, 1:2 bivalent model (apparent)
[4] = target: T1, mucin-domain-deleted Zaire ebolavirus GP; experiment: pH 5.3
[5] = target: T1, mucin-domain-deleted Zaire ebolavirus GP; experiment: pH 7.4
[6] = target: T1, mucin-domain-deleted Zaire ebolavirus GP; experiment: biolayer interferometry, Fab, pH 5.3, 1:1 model; Fab, BLI, pH 5.3
[7] = target: T1, mucin-domain-deleted Zaire ebolavirus GP; experiment: biolayer interferometry, Fab, pH 7.4, 1:1 model; Fab, BLI, pH 7.4

Row | Binder | EC50 (read off the curve) [1] | koff [2] | kon [2] | Kd [3] | koff [4] | kon [4] | koff [5] | kon [5] | Kd [6] | Kd [7]
1 | B1 | ~0.01 µg/mL | 8.91e-06 s⁻¹ | 143000 M⁻¹ s⁻¹ | 0.0628 nM | – | – | – | – | – | –
2 | B2 | – | – | – | – | 0.000179 s⁻¹ | 85200 M⁻¹ s⁻¹ | 0.000136 s⁻¹ | 131000 M⁻¹ s⁻¹ | 2.1 nM | 1.04 nM
